B1: Receptor-type tyrosine-protein phosphatase R (Homo sapiens), Q15256 (parent)
chain: MRRAVCFPALCLLLNLHAAGCFSGNNDHFLAINQKKSGKPVFIYKHSQDIEKSLDIAPQKIYRHSYHSSSEAQVSKRHQIVNSAFPRPAYDPSLNLLAMDGQDLEVENLPIPAANVIVVTLQMDVNKLNITLLRIFRQGVAAALGLLPQQVHINRLIGKKNSIELFVSPINRKTGISDALPSEEVLRSLNINVLHQSLSQFGITEVSPEKNVLQGQHEADKIWSKEGFYAVVIFLSIFVIIVTCLMILYRLKERFQLSLRQDKEKNQEIHLSPITLQPALSEAKTVHSMVQPEQAPKVLNVVVDPQGRGAPEIKATTATSVCPSPFKMKPIGLQERRGSNVSLTLDMSSLGNIEPFVSIPTPREKVAMEYLQSASRILTRSQLRDVVASSHLLQSEFMEIPMNFVDPKEIDIPRHGTKNRYKTILPNPLSRVCLRPKNVTDSLSTYINANYIRGYSGKEKAFIATQGPMINTVDDFWQMVWQEDSPVIVMITKLKEKNEKCVLYWPEKRGIYGKVEVLVISVNECDNYTIRNLVLKQGSHTQHVKHYWYTSWPDHKTPDSAQPLLQLMLDVEEDRLASQGRGPVVVHCSAGIGRTGCFIATSIGCQQLKEEGVVDALSIVCQLRMDRGGMVQTSEQYEFVHHALCLYESRLSAETVQ

Variants of: B1
Conditions: with mk14_human MAPK14, Q16539
Chain of mk14_human MAPK14, Q16539 (Q16539 whole entry): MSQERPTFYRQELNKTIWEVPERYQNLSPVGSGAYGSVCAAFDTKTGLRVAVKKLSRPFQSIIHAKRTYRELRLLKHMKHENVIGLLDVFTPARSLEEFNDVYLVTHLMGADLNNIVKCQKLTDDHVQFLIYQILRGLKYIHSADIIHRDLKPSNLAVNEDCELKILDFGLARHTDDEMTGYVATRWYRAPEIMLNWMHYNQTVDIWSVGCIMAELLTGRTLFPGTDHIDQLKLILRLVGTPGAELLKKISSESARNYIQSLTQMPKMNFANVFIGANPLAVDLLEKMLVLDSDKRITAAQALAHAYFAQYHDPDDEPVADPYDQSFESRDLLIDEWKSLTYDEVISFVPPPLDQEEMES

effect of a mutation on the interaction	Variant
disrupting interaction	S339E
